The assay deals with T1, GST-EBP50 (ERM-binding phosphoprotein 50 kD) (human, UniProt O14745 1-358).
T1 sequence (looked up): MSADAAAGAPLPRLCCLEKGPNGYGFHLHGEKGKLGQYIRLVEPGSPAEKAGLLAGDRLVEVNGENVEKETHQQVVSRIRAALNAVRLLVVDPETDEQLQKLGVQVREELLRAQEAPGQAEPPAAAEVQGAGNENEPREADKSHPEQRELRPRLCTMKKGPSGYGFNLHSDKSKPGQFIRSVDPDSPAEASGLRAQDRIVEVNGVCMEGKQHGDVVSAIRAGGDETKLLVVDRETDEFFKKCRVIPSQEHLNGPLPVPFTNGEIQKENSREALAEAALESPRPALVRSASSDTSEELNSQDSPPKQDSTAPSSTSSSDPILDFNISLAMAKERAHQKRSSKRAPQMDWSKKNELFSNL
Put plainly: pull-down.

Ends that are not written are not given here. * marks the point of attachment. Biotin = O=C1N[C@H]2[C@H](CS[C@H]2CCCCC(=O)*)N1

Consider Biotin-SGSGTEEEVQDTRL [CFTRwt peptide (COOH-terminal 10 amino acids of human CFTR)], for which the binding result is given as “binds”.

Source of the values: article PMC2156157 (The Journal of Cell Biology, 1999).
